T1: Npl3 RRM1 (Saccharomyces cerevisiae, UniProt Q01560 114-201)
T1 sequence: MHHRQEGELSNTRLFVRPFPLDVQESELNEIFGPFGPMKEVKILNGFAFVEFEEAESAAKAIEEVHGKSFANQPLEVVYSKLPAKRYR


Molecular target: T1, Npl3 RRM1
Experiment: NMR titration

Row | Binder | binding result
1 | CCCCCC (ssDNA) [polyC 6mer] | binds
2 | TTTTTT (ssDNA) [polyT 6mer] | no binding
3 | AAAAAA (ssDNA) [polyA 6mer] | no binding
4 | GGGGGG (ssDNA) [polyG 6mer] | no binding

Reference: publication doi:10.1101/2022.05.24.493251
